What all share (test): high-speed atomic force microscopy
Experiment [1] has as its target EML4-ALK v3 with the subdomain region (191-217 aa residues) deleted (ddv3) (human) (UniProt Q9UM73).
The target in experiment [2] is EML4-ALK variant-3 (v3b, E6:A20) (human) (UniProt Q9UM73).
The target in experiment [3] is EML4-ALK variant-5 (v5a, E2:A20) (human) (UniProt Q9UM73).

Values joined by “and” are separate entries in the source; they are usually repeats but may differ in a detail not shown here. Equal entries are not always repeated.

As for “EML4-ALK v3 with the subdomain region (191-217 aa residues) deleted (ddv3) (from UniProt Q9UM73 1058-1620) (natural protein)”, in experiment [1], the ratio of dimers worked out at 28.1%; the ratio of trimers is 7.3%; the stoichiometry N is 2 and 3.

Consider “EML4-ALK variant-3 (v3b, E6:A20) (from UniProt Q9UM73 1058-1620) (natural protein)”, for which, in experiment [2], the ratio of dimers is 38.5%; the ratio of trimers was determined as 9.3%; the stoichiometry N is 2 and 3.

Consider “EML4-ALK variant-5 (v5a, E2:A20) (from UniProt Q9UM73 1058-1620) (natural protein)”, for which, in experiment [3], the ratio of dimers stood at 29.8%; the ratio of trimers turned out to be 10.2%; the stoichiometry N is 2 and 3.

For orientation: stoichiometry N means the number of molecules, sites or subunits per partner or assembly.

(Values after paper doi:10.1101/2025.08.07.668011.)
